Publication PMC9984531, “Cryo-EM structure of human heptameric pannexin 2 channel” (Nature Communications, 2023)

Target: the molecule itself
Experiment: cryo-EM structure; single-particle cryo-EM of purified Panx2-NT (Superose 6 peak at 16.0 ml), 50 mM Tris pH 7.5, 150 mM NaCl, 0.02% GDN, ~10 mg/ml; C1 map without imposed symmetry, final refinement with C7 symmetry at ~3.4 Å

B1: human pannexin 2 N-terminal domain (Panx2-NT, amino acids 1-410) (domain or fragment, UniProt Q96RD6-3 1-410, looked up)
chain: MHHLLEQSADMATALLAGEKLRELILPGAQDDKAGALAALLLQLKLELPFDRVVTIGTVLVPILLVTLVFTKNFAEEPIYCYTPHNFTRDQALYARGYCWTELRDALPGVDASLWPSLFEHKFLPYALLAFAAIMYVPALGWEFLASTRLTSELNFLLQEIDNCYHRAAEGRAPKIEKQIQSKGPGITEREKREIIENAEKEKSPEQNLFEKYLERRGRSNFLAKLYLARHVLILLLSAVPISYLCTYYATQKQNEFTCALGASPDGAAGAGPAVRVSCKLPSVQLQRIIAGVDIVLLCVMNLIILVNLIHLFIFRKSNFIFDKLHKVGIKTRRQWRRSQFCDINILAMFCNENRDHIKSLNRLDFITNESDLMYDNVVRQLLAALAQSNHDATPTVRDSGVQTVDPSAN
modifications: N-glycosylated on N86 (extra density observed near N86)
notes: Pannexin 2 (PANX2), H. sapiens, NCBI NP_443071.2, 677 residues in full; construct Panx2-NT holds amino acids 1-410, made to mimic the caspase-cleaved truncation; the model holds residues 41-184, 188-266, 273-373 and 377-388; also called C-terminal truncated Panx2; human N-terminal Panx2; source: HEK293F, transient transfection (PEI), purified (DDM solubilisation, anti-FLAG M2 agarose, Superose 6 …)
stoichiometry N: 7
